Measured values from paper PMC12184107 (Cell Cycle, 2024).

How the values were obtained:
[1] = target: T1, recombinant human LGR5 (leucine-rich repeat-containing G-protein-coupled receptor 5) (human) (UniProt O75473); experiment: ELISA
T1 sequence (O75473 whole entry, looked up): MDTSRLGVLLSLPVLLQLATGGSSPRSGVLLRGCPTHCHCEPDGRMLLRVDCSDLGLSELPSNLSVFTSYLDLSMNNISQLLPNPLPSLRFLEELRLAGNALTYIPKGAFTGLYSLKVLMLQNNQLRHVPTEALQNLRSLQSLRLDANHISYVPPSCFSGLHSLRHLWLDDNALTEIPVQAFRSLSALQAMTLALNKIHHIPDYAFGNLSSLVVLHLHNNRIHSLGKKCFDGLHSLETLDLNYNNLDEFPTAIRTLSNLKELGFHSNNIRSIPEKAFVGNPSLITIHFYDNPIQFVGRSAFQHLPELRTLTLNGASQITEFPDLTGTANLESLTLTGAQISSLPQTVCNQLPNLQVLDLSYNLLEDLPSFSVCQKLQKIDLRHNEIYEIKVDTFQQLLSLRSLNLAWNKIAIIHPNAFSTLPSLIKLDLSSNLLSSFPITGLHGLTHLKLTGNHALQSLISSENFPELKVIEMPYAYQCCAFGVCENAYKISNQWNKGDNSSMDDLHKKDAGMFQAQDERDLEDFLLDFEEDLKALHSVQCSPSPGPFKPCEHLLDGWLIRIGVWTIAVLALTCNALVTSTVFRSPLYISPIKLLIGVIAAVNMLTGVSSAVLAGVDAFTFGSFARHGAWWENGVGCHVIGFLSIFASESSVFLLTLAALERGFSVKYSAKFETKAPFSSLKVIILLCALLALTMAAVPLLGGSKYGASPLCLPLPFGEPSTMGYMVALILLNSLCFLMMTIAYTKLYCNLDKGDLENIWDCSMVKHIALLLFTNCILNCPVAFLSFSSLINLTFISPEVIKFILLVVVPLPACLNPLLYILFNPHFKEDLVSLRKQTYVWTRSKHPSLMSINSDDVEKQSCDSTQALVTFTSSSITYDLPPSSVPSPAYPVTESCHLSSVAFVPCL

LGR5 = conditions: gastric cancer, phage display; cited from earlier work

Row | Substance | EC50 [1] | LGR5 binding (LGR5)
1 | recombinant human R-spondin 1 (from UniProt Q2MKA7 21-263) (ligand) | 0.04 nM | 
2 | IPQILSI |  | possessed LGR5 binding capabilities
